In article PMC8766848, “The Structural Basis of Babesia orientalis Lactate Dehydrogenase” (Frontiers in Cellular and Infection Microbiology, 2022):

Columns and labels:
[1] = substrate: CC(=O)C(=O)O; test: purified protein; assay type: biochemical, Babesia orientalis; conditions: NADH
[2] = substrate: NC(=O)C1=CN([C@@H]2O[C@H](COP(=O)(O)OP(=O)(O)OC[C@H]3O[C@@H](n4cnc5c(N)ncnc54)[C@H](O)[C@@H]3O)[C@@H](O)[C@H]2O)C=CC1; test: purified protein; assay type: biochemical, Babesia orientalis; conditions: varied: cofactor
[3] = substrate: CC(=O)c1ccc[n+]([C@@H]2O[C@H](COP(=O)([O-])OP(=O)(O)OC[C@H]3O[C@@H](n4cnc5c(N)ncnc54)[C@H](O)[C@@H]3O)[C@@H](O)[C@H]2O)c1; test: enzyme kinetics (Km), used as synthetic cofactor, lactate to pyruvate; assay type: biochemical, Babesia orientalis; conditions: varied: cofactor
Source text: enzyme kinetics (Km), used as synthetic cofactor, lactate to pyruvate on Babesia orientalis lactate dehydrogenase (BoLDH) | BoLDH catalyzes the conversion of lactate to pyruvate using synthetic APAD^+ instead of NAD^+ as a cofactor

[4] = substrate: NC(=O)c1ccc[n+]([C@@H]2O[C@H](COP(=O)([O-])OP(=O)(O)OC[C@H]3O[C@@H](n4cnc5c(N)ncnc54)[C@H](O)[C@@H]3O)[C@@H](O)[C@H]2O)c1; test: purified protein; conditions: varied: cofactor
[5] = substrate: C[C@H](O)C(=O)O; test: purified protein; conditions: NAD+

B1: Babesia orientalis lactate dehydrogenase (BoLDH) (Babesia orientalis) (protein)
chain: MLKGFLSTMSPAVRRNKISLIGAGNIGGVMAYLAQLKELGDVVLFDIAPKLGEAKALDIMHANAIYDTAHKAIGTANYEDIADSDVCIITAGLAKLPNKKDEEWSRDDLVAPNSKIMFTIGDNIKKYAPNAFVICITNPLDVMVKMLLKATGFPKNKVVGMGGLLDSSRMCHYIADKLNVNPRYVHGSCIGGHGDSMIPLVNHVTVNGIPIQLFVERGDITQAELDKIAQRTIGSGMELVQLYGNGSAYFAPATAAIEMASAYLNDKKSVIVCSCYLEGEYGHSDVYLGTPAIIGANGIEKIITLKLSSEEQAKLDASVKEIMRLEALAG
notes: full-length ORF (330 residues), N-terminal His6 tag, recombinant rBoLDH
In the case of B1, the Km [1] is reported as 102 ± 19.2 µM, the kcat [1] is reported as 56.5 s⁻¹ and the kcat/Km [1] is reported as 554000 M⁻¹ s⁻¹. It also gave a Km [2] of 126 ± 19.9 µM, a kcat [2] of 115 s⁻¹ and a kcat/Km [2] of 913000 M⁻¹ s⁻¹. For the same protein, the Km [3] was 395 ± 49.9 µM, the kcat [3] was 62.3 s⁻¹ and the kcat/Km [3] was 157000 M⁻¹ s⁻¹. It also gave a Km [4] of 493 ± 69.2 µM, a kcat [4] of 21.5 s⁻¹ and a kcat/Km [4] of 43600 M⁻¹ s⁻¹. It also gave a Km [5] of 166 ± 24.2 µM, a kcat [5] of 30.5 s⁻¹ and a kcat/Km [5] of 184000 M⁻¹ s⁻¹.
